Source: IntAct's records for PubMed 31515488

B1: Calcium-binding and coiled-coil domain-containing protein 2 (Homo sapiens), Q13137 (parent)
chain: MEETIKDPPTSAVLLDHCHFSQVIFNSVEKFYIPGGDVTCHYTFTQHFIPRRKDWIGIFRVGWKTTREYYTFMWVTLPIDLNNKSAKQQEVQFKAYYLPKDDEYYQFCYVDEDGVVRGASIPFQFRPENEEDILVVTTQGEVEEIEQHNKELCKENQELKDSCISLQKQNSDMQAELQKKQEELETLQSINKKLELKVKEQKDYWETELLQLKEQNQKMSSENEKMGIRVDQLQAQLSTQEKEMEKLVQGDQDKTEQLEQLKKENDHLFLSLTEQRKDQKKLEQTVEQMKQNETTAMKKQQELMDENFDLSKRLSENEIICNALQRQKERLEGENDLLKRENSRLLSYMGLDFNSLPYQVPTSDEGGARQNPGLAYGNPYSGIQESSSPSPLSIKKCPICKADDICDHTLEQQQMQPLCFNCPICDKIFPATEKQIFEDHVFCHSL
B2: NADPH-dependent diflavin oxidoreductase 1 (Homo sapiens), Q9UHB4 (parent)
chain: MPSPQLLVLFGSQTGTAQDVSERLGREARRRRLGCRVQALDSYPVVNLINEPLVIFVCATTGQGDPPDNMKNFWRFIFRKNLPSTALCQMDFAVLGLGDSSYAKFNFVAKKLHRRLLQLGGSALLPVCLGDDQHELGPDAAVDPWLRDLWDRVLGLYPPPPGLTEIPPGVPLPSKFTLLFLQEAPSTGSEGQRVAHPGSQEPPSESKPFLAPMISNQRVTGPSHFQDVRLIEFDILGSGISFAAGDVVLIQPSNSAAHVQRFCQVLGLDPDQLFMLQPREPDVSSPTRLPQPCSMRHLVSHYLDIASVPRRSFFELLACLSLHELEREKLLEFSSAQGQEELFEYCNRPRRTILEVLCDFPHTAAAIPPDYLLDLIPVIRPRAFSIASSLLTHPSRLQILVAVVQFQTRLKEPRRGLCSSWLASLDPGQGPVRVPLWVRPGSLAFPETPDTPVIMVGPGTGVAPFRAAIQERVAQGQTGNFLFFGCRWRDQDFYWEAEWQELEKRDCLTLIPAFSREQEQKVYVQHRLRELGSLVWELLDRQGAYFYLAGNAKSMPADVSEALMSIFQEEGGLCSPDAAAYLARLQQTRRFQTETWA
partner: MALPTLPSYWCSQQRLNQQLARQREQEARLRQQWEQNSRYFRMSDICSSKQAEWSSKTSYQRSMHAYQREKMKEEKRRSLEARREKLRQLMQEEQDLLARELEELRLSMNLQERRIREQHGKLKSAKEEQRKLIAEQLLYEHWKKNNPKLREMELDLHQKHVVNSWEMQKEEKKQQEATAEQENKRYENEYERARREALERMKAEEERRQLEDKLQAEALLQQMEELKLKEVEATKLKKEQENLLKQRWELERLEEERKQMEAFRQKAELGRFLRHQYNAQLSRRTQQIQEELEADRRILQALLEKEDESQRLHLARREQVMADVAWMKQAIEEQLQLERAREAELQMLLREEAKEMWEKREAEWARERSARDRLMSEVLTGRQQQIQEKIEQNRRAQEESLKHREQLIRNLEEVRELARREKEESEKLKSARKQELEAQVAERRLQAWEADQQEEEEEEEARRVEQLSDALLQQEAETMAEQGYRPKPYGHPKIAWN
B3: 5'-AMP-activated protein kinase subunit beta-2 (Homo sapiens), O43741 (parent)
chain: MGNTTSDRVSGERHGAKAARSEGAGGHAPGKEHKIMVGSTDDPSVFSLPDSKLPGDKEFVSWQQDLEDSVKPTQQARPTVIRWSEGGKEVFISGSFNNWSTKIPLIKSHNDFVAILDLPEGEHQYKFFVDGQWVHDPSEPVVTSQLGTINNLIHVKKSDFEVFDALKLDSMESSETSCRDLSSSPPGPYGQEMYAFRSEERFKSPPILPPHLLQVILNKDTNISCDPALLPEPNHVMLNHLYALSIKDSVMVLSATHRYKKKYVTTLLYKPI

Variants of: B1
Details: with leg8_human LGALS8, O00214
Chain of leg8_human LGALS8, O00214 (O00214 whole entry): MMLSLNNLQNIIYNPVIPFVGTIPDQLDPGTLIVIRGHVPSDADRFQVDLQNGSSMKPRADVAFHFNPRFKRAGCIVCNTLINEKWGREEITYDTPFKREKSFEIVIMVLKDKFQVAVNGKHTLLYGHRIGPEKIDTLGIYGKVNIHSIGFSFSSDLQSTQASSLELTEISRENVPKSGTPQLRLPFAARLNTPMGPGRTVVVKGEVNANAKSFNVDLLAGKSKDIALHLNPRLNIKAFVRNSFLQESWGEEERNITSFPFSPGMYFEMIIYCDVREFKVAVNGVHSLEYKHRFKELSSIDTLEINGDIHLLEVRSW

Row | effect of a mutation on the interaction | Variant
1 | with no effect | MEETIKDPPTSAVLLDHCHFSQVIFNSVEKFYIPGGDVTCHYTFTQHFIPRRKDWIGIFRVGWKTTREYYTFMWVTLPIDLNNKSAKQQEVQFKAYYLPKDDEYYQFCYVDEDGVVRGASIPFQFRPENEEDILVVTTQGEVEEIEQHNKELCKENQELKDSCISLQKQNSDMQAELQKKQEELETLQSINKKLELKVKEQKDYWETELLQLKEQNQKMSSENEKMGIRVDQLQAQLSTQEKEMEKLVQGDQDKTEQLEQLKKENDHLFLSLAEQRKDQKKLEQTVEQMKQNETTAMKKQQELMDENFDLSKRLSENEIICNALQRQKERLEGENDLLKRENSRLLSYMGLDFNSLPYQVPTSDEGGARQNPGLAYGNPYSGIQESSSPSPLSIKKCPICKADDICDHTLEQQQMQPLCFNCPICDKIFPATEKQIFEDHVFCHSL [T273A]
2 | with no effect | MEETIKDPPTSAVLLDHCHFSQVIFNSVEKFYIPGGDVTCHYTFTQHFIPRRKDWIGIFRVGWKTTREYYTFMWVTLPIDLNNKSAKQQEVQFKAYYLPKDDEYYQFCYVDEDGVVRGASIPFQFRPENEEDILVVTTQGEVEEIEQHNKELCKENQELKDSCISLQKQNSDMQAELQKKQEELETLQSINKKLELKVKEQKDYWETELLQLKEQNQKMSSENEKMGIRVDQLQAQLSTQEKEMEKLVQGDQDKAEQLEQLKKENDHLFLSLTEQRKDQKKLEQTVEQMKQNETTAMKKQQELMDENFDLSKRLSENEIICNALQRQKERLEGENDLLKRENSRLLSYMGLDFNSLPYQVPTSDEGGARQNPGLAYGNPYSGIQESSSPSPLSIKKCPICKADDICDHTLEQQQMQPLCFNCPICDKIFPATEKQIFEDHVFCHSL [T255A]

Variants of: B1
Details: with tcl1a_human TCL1A

Row | effect of a mutation on the interaction | Variant
3 | with no effect | MEETIKDPPTSAVLLDHCHFSQVIFNSVEKFYIPGGDVTCHYTFTQHFIPRRKDWIGIFRVGWKTTREYYTFMWVTLPIDLNNKSAKQQEVQFKAYYLPKDDEYYQFCYVDEDGVVRGASIPFQFRPENEEDILVVTTQGEVEEIEQHNKELCKENQELKDSCISLQKQNSDMQAELQKKQEELETLQSINKKLELKVKEQKDYWETELLQLKEQNQKMSSENEKMGIRVDQLQAQLSTQEKEMEKLVQGDQDKTEQLEQLKKENDHLFLSLAEQRKDQKKLEQTVEQMKQNETTAMKKQQELMDENFDLSKRLSENEIICNALQRQKERLEGENDLLKRENSRLLSYMGLDFNSLPYQVPTSDEGGARQNPGLAYGNPYSGIQESSSPSPLSIKKCPICKADDICDHTLEQQQMQPLCFNCPICDKIFPATEKQIFEDHVFCHSL [T273A]

Variants of: B1
Details: with dus12_human DUSP12, Q9UNI6
Chain of dus12_human DUSP12, Q9UNI6 (Q9UNI6 whole entry): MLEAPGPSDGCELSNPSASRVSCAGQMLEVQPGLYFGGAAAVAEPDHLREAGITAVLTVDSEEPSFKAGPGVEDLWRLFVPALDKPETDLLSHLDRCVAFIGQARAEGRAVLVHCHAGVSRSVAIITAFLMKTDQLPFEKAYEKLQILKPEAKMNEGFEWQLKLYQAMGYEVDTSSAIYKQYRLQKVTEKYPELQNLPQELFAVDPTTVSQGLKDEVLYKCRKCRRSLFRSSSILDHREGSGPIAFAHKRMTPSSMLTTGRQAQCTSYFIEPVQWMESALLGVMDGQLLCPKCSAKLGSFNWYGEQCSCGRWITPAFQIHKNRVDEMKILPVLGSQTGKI

Row | effect of a mutation on the interaction | Variant
4 | with no effect | MEETIKDPPTSAVLLDHCHFSQVIFNSVEKFYIPGGDVTCHYTFTQHFIPRRKDWIGIFRVGWKTTREYYTFMWVTLPIDLNNKSAKQQEVQFKAYYLPKDDEYYQFCYVDEDGVVRGASIPFQFRPENEEDILVVTTQGEVEEIEQHNKELCKENQELKDSCISLQKQNSDMQAELQKKQEELETLQSINKKLELKVKEQKDYWETELLQLKEQNQKMSSENEKMGIRVDQLQAQLSTQEKEMEKLVQGDQDKTEQLEQLKKENDHLFLSLAEQRKDQKKLEQTVEQMKQNETTAMKKQQELMDENFDLSKRLSENEIICNALQRQKERLEGENDLLKRENSRLLSYMGLDFNSLPYQVPTSDEGGARQNPGLAYGNPYSGIQESSSPSPLSIKKCPICKADDICDHTLEQQQMQPLCFNCPICDKIFPATEKQIFEDHVFCHSL [T273A]

Variants of: B2
Details: with tchp_human TCHP

Row | effect of a mutation on the interaction | Variant
5 | disrupting interaction strength | P281L

Variants of: B3
Details: with oxda_human DAO

Row | effect of a mutation on the interaction | Variant
6 | with no effect | MGNTTSDRVSGERHGAKAARSEGAGGHAPGKEHKIMVGSTDDPSVFSLPDSKLPEDKEFVSWQQDLEDSVKPTQQARPTVIRWSEGGKEVFISGSFNNWSTKIPLIKSHNDFVAILDLPEGEHQYKFFVDGQWVHDPSEPVVTSQLGTINNLIHVKKSDFEVFDALKLDSMESSETSCRDLSSSPPGPYGQEMYAFRSEERFKSPPILPPHLLQVILNKDTNISCDPALLPEPNHVMLNHLYALSIKDSVMVLSATHRYKKKYVTTLLYKPI [G55E]

Variants of: B3
Details: with mdfi_human MDFI

Row | effect of a mutation on the interaction | Variant
7 | with no effect | MGNTTSDRVSGERHGAKAARSEGAGGHAPGKEHKIMVGSTDDPSVFSLPDSKLPEDKEFVSWQQDLEDSVKPTQQARPTVIRWSEGGKEVFISGSFNNWSTKIPLIKSHNDFVAILDLPEGEHQYKFFVDGQWVHDPSEPVVTSQLGTINNLIHVKKSDFEVFDALKLDSMESSETSCRDLSSSPPGPYGQEMYAFRSEERFKSPPILPPHLLQVILNKDTNISCDPALLPEPNHVMLNHLYALSIKDSVMVLSATHRYKKKYVTTLLYKPI [G55E]

Variants of: B3
Details: with crx_human CRX

Row | effect of a mutation on the interaction | Variant
8 | with no effect | MGNTTSDRVSGERHGAKAARSEGAGGHAPGKEHKIMVGSTDDPSVFSLPDSKLPEDKEFVSWQQDLEDSVKPTQQARPTVIRWSEGGKEVFISGSFNNWSTKIPLIKSHNDFVAILDLPEGEHQYKFFVDGQWVHDPSEPVVTSQLGTINNLIHVKKSDFEVFDALKLDSMESSETSCRDLSSSPPGPYGQEMYAFRSEERFKSPPILPPHLLQVILNKDTNISCDPALLPEPNHVMLNHLYALSIKDSVMVLSATHRYKKKYVTTLLYKPI [G55E]

Variants of: B3
Details: with cdx4_human CDX4, O14627
Chain of cdx4_human CDX4, O14627 (O14627 whole entry): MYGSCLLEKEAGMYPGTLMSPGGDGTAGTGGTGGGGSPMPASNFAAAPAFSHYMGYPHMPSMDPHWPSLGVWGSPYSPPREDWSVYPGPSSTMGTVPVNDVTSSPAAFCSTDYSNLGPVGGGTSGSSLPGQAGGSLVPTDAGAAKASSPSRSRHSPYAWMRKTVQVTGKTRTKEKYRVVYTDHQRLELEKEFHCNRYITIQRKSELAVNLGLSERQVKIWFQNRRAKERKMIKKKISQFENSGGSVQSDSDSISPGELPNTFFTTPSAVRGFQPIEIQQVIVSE

Row | effect of a mutation on the interaction | Variant
9 | with no effect | MGNTTSDRVSGERHGAKAARSEGAGGHAPGKEHKIMVGSTDDPSVFSLPDSKLPEDKEFVSWQQDLEDSVKPTQQARPTVIRWSEGGKEVFISGSFNNWSTKIPLIKSHNDFVAILDLPEGEHQYKFFVDGQWVHDPSEPVVTSQLGTINNLIHVKKSDFEVFDALKLDSMESSETSCRDLSSSPPGPYGQEMYAFRSEERFKSPPILPPHLLQVILNKDTNISCDPALLPEPNHVMLNHLYALSIKDSVMVLSATHRYKKKYVTTLLYKPI [G55E]
